The RNAGym collection of RNA variant scans (doi:10.1073/pnas.2313332121)

B1: TPR t1 (parent)
chain: GACCAAUCUGCCCUCAGAGCUCGAGAACAUCUUCGGAUGCAGAGGAGGCAGGCUUCGGUGGCGCGAUAGCGCCAACGUCCUCAACCUCCAAUGCAUCCCACCACAUGAUGAUGCCUGAAGAGCCUUGGUUUUUUG

Variants of: B1
Assay: polymerase ribozyme fitness, log enrichment relative to wild type (log ratio); higher = more active; in vitro selection for triplet polymerase activity
How it was run: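 Each subunit of a heterodimeric triplet polymerase ribozyme was mutagenized into a library by PCR, transcribed, and subjected to one round of in vitro selection, run in triplicate. Libraries were annealed with a biotinylated primer, the partner subunit and triplets, incubated frozen at −7 °C, and extended constructs were gel-excised, captured on streptavidin beads and recovered by RT-PCR. Input and output libraries were sequenced on Illumina, keeping genotypes with ≥10 input reads and ≥1 read per output. Fitness is log base 2 of genotype enrichment divided by wild-type enrichment, from inverse-variance-weighted replicate averages.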

Variant	polymerase ribozyme fitness (log ratio)
GACCAAUCUGCCCUCAGAGCUCGAGAACAUCUUCGGAUGCAUAGGAGGCAGGCUUCGGUGGCGCGAUAGCGCCAACGUCCUCAACCUCCAAAGCAUCCCACCACAUGAUGAUGCCUGUAGAGCCUUGGUUUUUUG	-2.03
GACCAAUCUGCCCUCAGAGCUCGAGAACAUCUUCGGAUGCAGCGGAGGAAGACUUCGGUGGCGCGAUAGCGCUAACGUCCCCAACCUCCAAUGCCUCCCACCACAUGAUGAUGCCUGAAGAGACUUGGUUUUUUG	-6.02
GACCAAUCUGCCCUCAGAGCUCGAGAACAUCUUCGGAUGCAGCGGAGGCAGGGUUCGGUGGCGCGAUAGUGCCAACGUCCUCAACCUCCAAUGCCUCCCACCACAUGAUGAUGCCUGAAGAGCCUUGGUUUUUUG	-5.1
GACCAAUCUGCCCUCAGAGCUCGAGAACAUCUUCGGAUGCAUAGGAGGCAGGCUUCGGUGGCGCGAUAGCGCCAACGACCACAACCUCCAAUGCAUCCCACCACAUGAUGAAGCCUGAAGAGCCUUGGUUUUUUG	-3.13
GACCAAUCUGCCCUCAGAGCUCGAGAACAUCUUCGGAUGCAUAGGAGGCAGGCUUCGGUGGCGCGAUAGCGCCAACGUCCCCAAGCUCCAAUGCAUCCCACCACAUGAUGAUGCCUGAAGAGCCUGGGUUUUUUG	-6.41
GACCAAUCUGCCCUCAGAGCUCGAGAACAUCUUCGGAUGCAGCGGAGGCAGGCUUAGGUGGCGCGAUAGCGCCAACGUCCUCAACCUCCAAUGCAUCCCACCACAUGAUGAUGCCUGAAGAGCCUUGGUUUUUUG	-2.98
GACCAAUCUGCCCUCAGAGCUCGAGAACAUCUUCGGAUGCAUAGGAGGCAGGCUUCGGUGGCGCGAUAGCGCCAACGUCCUCAACCUCCAAUGCACCCCACCACAUGAUGAUGCCUGAAGAGCCUUGGUUUUUUG	-1.58
GACCAAUCUGCCCUCAGAGCUCGAGAACAUCUUCGGAUGCAGCGGAGGCAGGCUUCGGUGGUGCGAUAGCGGCAACGUCCUCAACCUCCAAUGCAUCCCACCACAUGAUGAUGCCUGAAGAGCCUUGGUUUUUUG	-4.05
GACCAAUCUGCCCUCAGAGCUCGAGAACAUCUUCGGAUGCAGCGGAGGCAGGCUUGGGUGGGGCGAUGGCGCCAACGUCCUCAACCUCCAAUGCAUCCCACCACAUGAUGAUGCCUGAAAAGCCUUGGUUUUUUG	-7.42
GACCAAUCUGCCCUCAGAGCUCGAGAACAUCUUCGGAUGCAUAGGAGGCAGGCUUCGGUGGCGCGAUAGCGCCAACGUCCUCAACCUCCAAUCCAUCCCACCACAUGAUGAUGCCUGAAGAGCCUUGGUUUUUUG	-2.17
GACCAAUCUGCCCUCAGAGCUCGAGAACAUCUUCGGAUGCAGCGGAGGCAGGAUUAGGUGGCGCGAUAGCGACAACGUCCUCAACCUCCAAUGCAUCCCACCACAUGAUGAUGCCUGAAGAGCCUUGGUUUUUUG	-2.36
GACCAAUCUGCCCUCAGAGCUCGAGAACAUCUUCGGAUGCAUAGGAGGCAGGCUAGGGUGGCGCGAUAGCGCCAACCUCCUCAACCUCCAAUGCAUCCCACCACAUGAUGAUGCAUGAAGAGCCUUGGUUUUUUG	-1.05
GACCAAUCUGCCCUCAGAGCUCGAGAACAUCUUCGGAUGCAUAGGAGGCAGGCUUCGGUGGCGCGAUAGCGCCAACUUCCUCAACCUCCAAUGCAUCCCACCACAAGAUGAUGCCUGAACAGCCUUGGUUUUUUG	-2
GACCAAUCUGCCCUCAGAGCUCGAGAACAUCUUCGGAUGCAGCGGAGGCAGGCUUCGGUGGCGCGAUGGCGCCAACGUCCUCAACCUCCAAUGCAUCCCACCACAUGAAGAUGCCUUAAGAGCCUUGGUUUUUUG	-6.95
GACCAAUCUGCCCUCAGAGCUCGAGAACAUCUUCGGAUGCAUAGGAGGCAGGCUUCGGUGGCGCGAUAGCGCCAACGUCCUCAACCUCCAAAGCAUCCCACCACAUGAUGAUGCCUGAAGAGCCUUGGUUUUUUG	-2.25
GACCAAUCUGCCCUCAGAGCUCGAGAACAUCUUCGGAUGCAGCGGCGGCAGGCUUCGGUAGCGCGAUAGCGCCAACGUCCUCAACCACCAAUGCAUCCCAUCACAUGAUGAUGCCUGAAGAGCCUUGGUUUUUUG	-2.45
GACCAAUCUGCCCUCAGAGCUCGAGAACAUCUUCGGAUGCAUAGGAGGCAGGCUUCGGUGGCGCGAUAGCGCCAACGUCCUCAACCUCCAAUGCAUCCCACCACAUGAUGAUGCCUGAAAAGCCUUGGUUUUUUG	-1.14
GACCAAUCUGCCCUCAGAGCUCGAGAACAUCUUCGGAUGCAGCGGCGGCAGGCUUCGGUGGCGCGAUAGCGCCAACGUCCUCAACCUCCAAUGCAACCCACCACAAGAUGAUGCCGGAAGAGACUUGGUUUUUUG	-7.89
GACCAAUCUGCCCUCAGAGCUCGAGAACAUCUUCGGAUGCAGCGGAGGUAGGCUUCGGUGGCGCGAUAGAGCCAACGUCCUCAACCUCCAAUGCAUCCCACUACAUGAUAAUGCCUGAAGAGCCUUGCUUGUUUG	-6.44
GACCAAUCUGCCCUCAGAGCUCGAGAACAUCUUCGGAUGCAUAGGAGGCAGGCUUCGGUGGCGCGAUAGCGCCAACGUCCUCAACCUCCAAUGCAUCCCACCACAUGAUGAUGCCUGAAGAGCCUUGAUUUUUUG	-3.14
GACCAAUCUGCCCUCAGAGCUCGAGAACAUCUUCGGAUGCAGCGGAGGCCGGCUUCGGUGGCGCGAUAGCGCCAACGUCCUCAACUUCAAAUGCAUCCCACCACAUGAUGAUGCCUGAAGAGCCUUGGUUUUUUG	-4.9

Variant	polymerase ribozyme fitness (log ratio)
GACCAAUCUGCCCUCAGAGCUCGAGAACAUCUUCGGAUGCAGCGGAGGCGGGCUUCGGUGACGCGAUAGCGCCAACGUCCUCAACCUCCAAUGCAUCCCACCACAUGAUGAUGCACGAAGAGCCUUGGUUUUUUG	-4.2
GACCAAUCUGCCCUCAGAGCUCGAGAACAUCUUCGGAUGCAGCGGAGGCAGGCUUCGGUGGCGCGAUAGCGCCAACGUCCUCAACCUCCAAUGCAUCCCACCACAUGAUGAUGCCUGAAGAGCCUUGGUUUUUUG	-2.17
GACCAAUCUGCCCUCAGAGCUCGAGAACAUCUUCGGAUGCAGCGGAGGCAGGUUUCGGUGGCGCGAUAGCGCCAACGUCCUCAACCUCCAAUGCAUCCCACCACAUGAUCAUGCCUGAAGAGCCUUGGUUUUUUG	-7.24
GACCAAUCUGCCCUCAGAGCUCGAGAACAUCUUCGGAUGCAUAGGAGGCAGGCUUCGGUGGCGCGAUAGCGCCAACGUCCUCAACCUCCAAUGCAUCCCACCACAUGAUGAUUCCUGAAGAGCCUUGGUUUUUUG	-3.06
GACCAAUCUGCCCUCAGAGCUCGAGAACAUCUUCGGAUGCAUAGGAGGCAGGCUUCGGUGGCGCGAUAGCGCCAACGUCCUCAACCUCCAAUGCAUCCCACCACAUGAUGAUCCCUGAAGAGCCUUGGUUUUUUG	-3.23
GACCAAUCUGCCCUCAGAGCUCGAGAACAUCUUCGGAUGCAUAGGAGGCAGGCAUCGGUGGCGCGAUAGCGCCAACGUCCUCAACCUCCAUUGCAUCCCACCACAUGAUGAUGCCUGAAGCGCAUUGGUUUUUUG	0.144
GACCAAUCUGCCCUCAGAGCUCGAGAACAUCUUCGGAUGCAUAGGAGGCAGGCUUCGGUGGCGCGAUAGCGCCAACGUCCUCAACCUCCAAUGCAUCCCACCACAUGAUAAUGCCUGAAGAGCCUUGGUUUUUUG	-2.74
GACCAAUCUGCCCUCAGAGCUCGAGAACAUCUUCGGAUGCAUAGGAGGCAGGCUUCGGUGGCGCGAUAGCGCCAACGUCCUCAACCUCCAAUGCAUCCCACCACAUGAUGAUGCCUGAAGAGCCAUGGUUUUUUG	-1.61
GACCAAUCUGCCCUCAGAGCUCGAGAACAUCUUCGGAUGCAUAGGAGGCAGGCUUCGGUGGCGCGAUAGCGCCAACGUCCUCAACCUCCAAUGCAUCCCACCACAUGAGGAUGCCUGAAGAGCCUUGGUUUUUUG	-5.53
GACCAAUCUGCCCUCAGAGCUCGAGAACAUCUUCGGAUGCAGCGGAGGGAGGCUUCGGUGGCGCGAUAGCGCCAACGUCCUCAACCUCCAAUGCAUCCCACCACAUGAUGAUGCCUGAAGAGCCUUGGUUUUUUG	-3.17
GACCAAUCUGCCCUCAGAGCUCGAGAACAUCUUCGGAUGCAGCGGAGGUAGGCUUCGGUGGCGCGAUAGCGCCAACGUCCUCAACCUCCAAUGCAUCCCACCACAUGAUGAUGCCUGAAGAGCCUUGGUUUUUUG	-3.72
GACCAAUCUGCCCUCAGAGCUCGAGAACAUCUUCGGAUGCAGCGGAGGAAGGCUUCGGUGGCGCGAUAGCGCCAACGUCCUCAACCUCCAAUGCAUCCCACCACAUGAUGAUGCCUGAAGAGCCUUGGUUUUUUG	-3.08
GACCAAUCUGCCCUCAGAGCUCGAGAACAUCUUCGGAUGCAUAGGAGGCAGGCUGCGGUGGCGCGAUAGCGCCAACGUCCUCAACCUCCAAUGCAUCCCACCACAUGAUGAUGCCUGAAGAGCCAUGGUUUUUUG	-1.45
GACCAAUCUGCCCUCAGAGCUCGAGAACAUCUUCGGAUGCAUAGGAGGCAGGCUUCGGUGGCGCGAUAGCGCCAACGACCUCAACCUCCAAUGCAUCCCACCACAUGAUGAUGCCUGAAGAGCCUUGGUUUUUUG	-2.36
GACCAAUCUGCCCUCAGAGCUCGAGAACAUCUUCGGAUGCAUAGGAGGCAGGCUUCGGCGGCGCGAUAGCGCCAACGUCCUCAACCACCAAUGCAUCCCUCCACAUGAUGAUGCCUGAAGAGCCUUGGUUUUUUG	-4.01
GACCAAUCUGCCCUCAGAGCUCGAGAACAUCUUCGGAUGCAGCGGAGGCAGGAUUCGGUGGCGCGAUAGCGCCAACGUCCUCAACCUCCAAUGCUUCCCACCACAUGAAGAUGCCUGAAGAGCCUUGGUGUUUUG	-7.32
GACCAAUCUGCCCUCAGAGCUCGAGAACAUCUUCGGAUGCAGCGGAGGCAGGCUUUGGUGGCGCGAUAGCGCCAACGUGCUCAACCUCCAAUGCAUCCCACCACAUGAUGAUGCCUGAAGAGCCUUGGUUUUUUG	-5.29
GACCAAUCUGCCCUCAGAGCUCGAGAACAUCUUCGGAUGCAGCGGAGGCAGGGUUCGGUGUCGCGAUAGCGCCAACGUCCUCAACCUCCAAUGCAUCCCACCACAUGAUGAUGCCUGAAGAGCCUUGAUUUUUUG	-4.58
GACCAAUCUGCCCUCAGAGCUCGAGAACAUCUUCGGAUGCAGCGGAGGCAGGCUUUGGUGGCGCGAUAGCGCCAACGUCCUAAACCUCCAUUUCACCCCACCACAUGAUGAUGCCUGAAGAGCGUUGGUUUUUUG	-2.46
GACCAAUCUGCCCUCAGAGCUCGAGAACAUCUUCGGAUGCAUAGGAGGCAGGCGUCGGUGGCGCGAUGGCGCCAACGUCCUCAACCUCCAAUGCAUCCCACCACAUGAUGAUGCCUGAAGAGCCUUGGUUUUUUG	-5.22
GACCAAUCUGCCCUCAGAGCUCGAGAACAUCUUCGGAUGCAUAGGAGGCAGGCAUCGGUGGCGCGAUAGCGCCAACGUCCUCAACCUCCAAUGCAUCCCACCACAUGAUUAUGCCUGAAGAGCCUUGGUUUUGUG	-4.37
